Assay results reported in publication PMC12107181 (2025).

B1: AD-TCP3 [Arabidopsis] / BD-COP1 [Arabidopsis] (parent complex)
chain 1: MAPDNDHFLDSPSPPLLEMRHHQSATENGGGCGEIVEVQGGHIVRSTGRKDRHSKVCTAKGPRDRRVRLSAPTAIQFYDVQDRLGFDRPSKAVDWLITKAKSAIDDLAQLPPWNPADTLRQHAAAAANAKPRKTKTLISPPPPQPEETEHHRIGEEEDNESSFLPASMDSDSIADTIKSFFPVASTQQSYHHQPPSRGNTQNQDLLRLSLQSFQNGPPFPNQTEPALFSGQSNNQLAFDSSTASWEQSHQSPEFGKIQRLVSWNNVGAAESAGSTGGFVFASPSSLHPVYSQSQLLSQRGPLQSINTPMIRAWFDPHHHHHHHQQSMTTDDLHHHHPYHIPPGIHQSAIPGIAFASSGEFSGFRIPARFQGEQEEHGGDNKPSSASSDSRH
chain 2: MEEISTDPVVPAVKPDPRTSSVGEGANRHENDDGGSGGSEIGAPDLDKDLLCPICMQIIKDAFLTACGHSFCYMCIITHLRNKSDCPCCSQHLTNNQLYPNFLLDKLLKKTSARHVSKTASPLDQFREALQRGCDVSIKEVDNLLTLLAERKRKMEQEEAERNMQILLDFLHCLRKQKVDELNEVQTDLQYIKEDINAVERHRIDLYRARDRYSVKLRMLGDDPSTRNAWPHEKNQIGFNSNSLSIRGGNFVGNYQNKKVEGKAQGSSHGLPKKDALSGSDSQSLNQSTVSMARKKRIHAQFNDLQECYLQKRRQLADQPNSKQENDKSVVRREGYSNGLADFQSVLTTFTRYSRLRVIAEIRHGDIFHSANIVSSIEFDRDDELFATAGVSRCIKVFDFSSVVNEPADMQCPIVEMSTRSKLSCLSWNKHEKNHIASSDYEGIVTVWDVTTRQSLMEYEEHEKRAWSVDFSRTEPSMLVSGSDDCKVKVWCTRQEASVINIDMKANICCVKYNPGSSNYIAVGSADHHIHYYDLRNISQPLHVFSGHKKAVSYVKFLSNNELASASTDSTLRLWDVKDNLPVRTFRGHTNEKNFVGLTVNSEYLACGSETNEVYVYHKEITRPVTSHRFGSPDMDDAEEEAGSYFISAVCWKSDSPTMLTANSQGTIKVLVLAA
B2: AD-TCP10 [Arabidopsis] / BD-COP1 [Arabidopsis] (parent complex)
chain 1: MGLKGYSVGEGGGEIVEVQGGHIIRATGRKDRHSKVFTSKGPRDRRVRLSAHTAIQFYDVQDRLGYDRPSKAVDWLIKKAKTAIDKLELGETTTTTTRQEPVNTKPESPTLVFQRENNDQTQFVAANLDPEDAMKTFFPATTTTNGGGGTNINFQNYPHQDDNNMVSRTTTPPPNLSQDLGLSLHPFQGNNNTVVVPETNNFTTTHFDTFGRISGWNHHDLTMTSSSSSEHQQQEQEERSNGGFMVNHHPHHHHHQPSMMTLLNSQQQQVFLGGQQQQQQRGTLQSSLFPHSFRSWDHHQTTSDHHHHQNQASSMFASSSQYGSHGMMMMQGLSFPNTTRLLHGEEATQPNSSSSPPNSHL
chain 2: B1 chain 2
B3: AD-PAP2 [Arabidopsis] / BD-COP1 [Arabidopsis] (parent complex)
chain 1: MEGSSKGLRKGAWTAEEDSLLRLCIDKYGEGKWHQVPLRAGLNRCRKSCRLRWLNYLKPSIKRGRLSNDEVDLLLRLHKLLGNRWSLIAGRLPGRTANDVKNYWNTHLSKKHESSCCKSKMKKKNIISPPTTPVQKIGVFKPRPRSFSVNNGCSHLNGLPEVDLIPSCLGLKKNNVCENSITCNKDDEKDDFVNNLMNGDNMWLENLLGENQEADAIVPEATTAEHGATLAFDVEQLWSLFDGETVELD
chain 2: B1 chain 2

Variants of: B1
Test: Y2H assay (β-galactosidase activity); parent: 2.7; read off a plot

Question: For chain 2 F595A, which response is on record?
Answer: The response was about 0.86 Miller units.

Variants of: B1
Test: Y2H assay (β-galactosidase activity); parent: 3; read off a plot

Question: Which response does the source give for chain 2 W467A here?
Answer: The response was about 0.86 Miller units.

Variants of: B2
Test: Y2H assay (β-galactosidase activity); parent: 0.92; read off a plot

Question: Which response does the source give for chain 1 V196A, chain 1 P197A here?
Answer: The response was about 1.1 Miller units.

Variants of: B3
Test: Y2H assay (β-galactosidase activity); parent: 15; read off a plot

Question: For chain 2 W467A, which response is on record?
Answer: Its response is about 2.1 Miller units.

Variants of: B3
Test: Y2H assay (β-galactosidase activity); parent: 21; read off a plot

Question: How did the response turn out when chain 2 F595A was run?
Answer: Its response is about 3.6 Miller units.
